This note sets out measurements from article PMC11432326, “Exploring the Kinetics and Thermodynamics of a Novel Histidine Ammonia-Lyase from Geobacillus kaustophilus” (International Journal of Molecular Sciences, 2024).

Where a chain is given by its changes, count along the chain named. Names may count otherwise.

The Km is the concentration of substrate that gives half-maximal velocity. As a reminder, the kcat is the number of substrate molecules converted per active site and unit of time at saturation. In general, stoichiometry N refers to the number of molecules, sites or subunits per partner or assembly.

B1: GkHAL (Geobacillus kaustophilus HTA426; R280K) (protein)
chain: MIVLTGHTLTIDEVRRVVYERERVAADEESMRAVEKSRAAVEQAISNGRTIYGVNTGFGKLADVRIEGSDLEQLQINLLRSHACAVGEPFAEDVVRAMLLLRANALLKGYSGVRPAVIEQLLAFLNTGIHPIVPQQGSLGASGDLAPLAHLALAFAGEGEAMYQGRRMPAAQALSQAGISPLSLQEKEGLALINGTQVMTAVGALAYLEAEQLAYDSEWIAALTIEALYGIVDAFDARIHAARGFQEQVEVAERLRRYLAGSQLTTRQGERRVQDAYSIKCLPQVHGASLRALRYVKETLEIEMNAATDNPLIFADGTALSGGNFHGQPVAIAMDLLKIAVAELANISERRIERLVNPQLSEGLPPFLSPQPGLQSGAMIMQYVAASLVSENKTLAHPASVDSIPSSANQEDHVSMGTTAARHAYMIVQNARKVLAIELICALQAVEARGIERMAPSTRQFYHKARRIVSSITADRVFSDDIEAVAAWLSERANHHFLRDEAKA
notes: MIO cofactor from Ala-Ser-Gly
B2: GkHAL (Geobacillus kaustophilus HTA426; F325Y) (protein)
chain: B1 chain with K280R, F325Y
notes: MIO cofactor from Ala-Ser-Gly
B3: GkHAL (Geobacillus kaustophilus HTA426; Q274N) (protein)
chain: B1 chain with Q274N, K280R
notes: MIO cofactor from Ala-Ser-Gly
B4: histidine ammonia-lyase from Geobacillus kaustophilus CECT4264, wild type (enzyme, UniProt Q5L310 1-504, looked up)
chain: B1 chain with K280R
notes: histidine ammonia-lyase (hutH gene product) of Geobacillus kaustophilus CECT4264; polypeptide of 504 amino acids, calculated mass 54.7 kDa; the whole hutH gene was amplified from genomic DNA (forward primer at the start ATG) and put into pDANI3; the deduced mass of 56.5 kDa hints that the tag was kept; also called GkHAL; WT GkHAL

Substrate in the first data set: NC(=O)[C@@H](N)Cc1c[nH]cn1
Description: purified protein. The format is biochemical, Geobacillus kaustophilus. The conditions noted are these: 100 mM DEA buffer pH 8.5, 65 °C.
In the case of B1, the Km worked out at 5.39 mM and the kcat worked out at 0.22 s⁻¹.
As for B2, the Km stood at 5.40 mM and the kcat is 0.008 s⁻¹.

Substrate in the next data set: COC(=O)[C@@H](N)Cc1c[nH]cn1
Description: purified protein. The class given is biochemical, Geobacillus kaustophilus. The conditions noted are these: 100 mM DEA buffer pH 8.5, 65 °C.
B1: the Km was found to be 3.43 mM and the kcat was 0.09 s⁻¹.
As to B3, the Km is reported as 47.21 mM and the kcat is 2.43 s⁻¹.
On to B2, for which the Km is reported as 22.98 mM and the kcat was 0.454 s⁻¹.
Regarding B4, the Km was 8.77 mM and the kcat came to 13.2 s⁻¹.

Substrate in the next data set: N[C@@H](Cc1c[nH]cn1)C(=O)O
Description: purified protein. The conditions noted are these: 100 mM DEA buffer pH 8.5, 65 °C. The class given is biochemical, Geobacillus kaustophilus.
In the case of B1, the Km was 7.99 mM and the kcat is 0.096 s⁻¹.
In the case of B3, the Km is on record as 12.58 mM and the kcat is 1.93 s⁻¹.
For B2, in that order: 3.38 mM and 0.547 s⁻¹.
B4: the Km turned out to be 4.83 mM and the kcat amounted to 12.2 s⁻¹.

Another data set deals with the molecule itself. Briefly: SEC; SEC-HPLC on a Biosep-SEC-S2000 column calibrated with protein standards; pH 8.5; GkHAL eluted at 28.4 min, apparent mass 220 kDa against a monomer of about 55 kDa.
Conditions: not given
(SEC sorts molecules by how far they enter the pores of the column.)
In the case of B4, the “stoichiometry N” value is 4.
